T1: human CD30L expressed on cells (human, UniProt P32971 1-234)
T1 construct: also called huCD30L; B16-huCD30L
T1 sequence: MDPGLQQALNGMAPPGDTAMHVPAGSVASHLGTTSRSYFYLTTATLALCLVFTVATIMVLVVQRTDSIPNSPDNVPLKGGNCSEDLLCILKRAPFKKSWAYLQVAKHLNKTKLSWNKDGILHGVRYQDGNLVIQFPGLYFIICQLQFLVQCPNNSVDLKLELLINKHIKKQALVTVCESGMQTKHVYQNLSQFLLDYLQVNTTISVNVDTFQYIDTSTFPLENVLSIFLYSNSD

T2: cynomolgus CD30L expressed on cells (cynomolgus, UniProt A0A7N9CVX7 1-234)
T2 construct: whole, on cells; also called cyCD30L; HEK293-cyCD30L
T2 sequence: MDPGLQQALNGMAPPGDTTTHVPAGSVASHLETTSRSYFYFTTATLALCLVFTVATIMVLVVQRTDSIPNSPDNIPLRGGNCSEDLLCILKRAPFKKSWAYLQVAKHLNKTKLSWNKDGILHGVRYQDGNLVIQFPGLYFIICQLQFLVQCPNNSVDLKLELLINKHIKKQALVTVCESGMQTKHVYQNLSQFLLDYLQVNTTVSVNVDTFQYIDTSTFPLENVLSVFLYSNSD

T3: CDH13 (human, UniProt P55290 139-693)
T3 construct: whole, on cells; also called hit #16
T3 sequence (looked up): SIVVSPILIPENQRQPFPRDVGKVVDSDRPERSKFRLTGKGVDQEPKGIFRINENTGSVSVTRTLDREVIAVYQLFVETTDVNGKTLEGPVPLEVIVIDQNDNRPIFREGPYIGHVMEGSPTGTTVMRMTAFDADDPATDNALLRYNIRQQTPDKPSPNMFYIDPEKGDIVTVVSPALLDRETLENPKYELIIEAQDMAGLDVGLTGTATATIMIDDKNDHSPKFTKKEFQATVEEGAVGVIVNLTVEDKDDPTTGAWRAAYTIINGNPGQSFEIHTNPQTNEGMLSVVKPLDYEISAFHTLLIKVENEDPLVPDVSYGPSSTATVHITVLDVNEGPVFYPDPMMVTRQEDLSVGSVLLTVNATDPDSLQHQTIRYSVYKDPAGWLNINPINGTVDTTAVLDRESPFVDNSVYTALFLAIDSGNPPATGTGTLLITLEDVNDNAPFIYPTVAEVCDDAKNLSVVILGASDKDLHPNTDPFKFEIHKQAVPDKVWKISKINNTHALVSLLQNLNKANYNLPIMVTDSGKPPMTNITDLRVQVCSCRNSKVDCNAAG

T4: recombinant human CD30L protein (human, UniProt P32971 63-234)
T4 construct: also called rhCD30L; huCD30L (ELISA)
T4 sequence (looked up): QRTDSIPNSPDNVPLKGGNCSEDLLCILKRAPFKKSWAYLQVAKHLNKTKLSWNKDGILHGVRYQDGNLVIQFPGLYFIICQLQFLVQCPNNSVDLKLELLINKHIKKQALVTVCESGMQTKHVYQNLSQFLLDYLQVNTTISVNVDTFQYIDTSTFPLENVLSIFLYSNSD


Columns and labels:
[1] = target: T1, human CD30L expressed on cells; test: flow cytometry, blocking of CD30-Fc binding to human CD30L on cells; reference Ref1
[2] = target: T2, cynomolgus CD30L expressed on cells; test: flow cytometry, blocking of CD30-Fc binding to cyno CD30L on cells; reference Ref1
CDH13 = target: T3, CDH13; test: cell microarray, library and confirmation screens
[3] = target: T4, recombinant human CD30L protein; test: KinExA, Fab, human CD30L; reference Fab of Ref1
Description: For each experiment, CD30L antigen is titrated in a background of the Fab and allowed to reach equilibrium. The solutions are then briefly exposed to the solid phase and a portion of free Fab is captured. The captured Fab is then labeled with a fluorescent secondary molecule. The short contact time with the solid phase is less than the time needed for dissociation of the pre-formed complex in solution, thus competition between the solution and the solid phase titrated binding partner is kinetically excluded.
The signals generated from the captured Fab, which are directly proportional to the concentration of free Fab in the equilibrated samples, are used to determine the KD value. The KinExA Pro software performs a least squares analysis on the measured data to fit optimal solution for the KD and the activity of the Fab to a curve representative of a 1:1 reversible bi-molecular interaction.

| fold better IC50 than reference 1 (ref1) anti-CD30L [1] | fold better IC50 than reference 1 (ref1) anti-CD30L [2] | binding result (CDH13) | fold difference in KD against the reference 1 anti-CD30L [3] | Binder |
| --- | --- | --- | --- | --- |
| 2.74 fold | 2.13 fold | no binding (tested: 5 µg/mL) |  | anti-CD30L antibody clone 2 germlined with IgG1 constant region SEQ ID NO: 502 (antibody, also called germlined clone 2; copies: 2 + 2) heavy: not shown VL: DIQMTQSPSSLSASVGDRVTITCRASQGISNHLAWFQQKPGKAPKSLIYAASSLQSGVPSRFSGSGSGTDFTLTISSLQPEDFATYYCQQYVTYPLTFGGGTKVEIK |
|  |  |  | 4.2 fold | Fab of clone 2 germlined (Fab, V domains shown, Fab used in KinExA; also called Fab of a representative anti-CD30L, clone 2 germlined) VH: EVQLVESGGGLVQPGRSLRLSCAASGFNFDDYAMHWVRQAPGKGLEWVSGISWRSGNIGYADSVKGRFTISRDNAKNSLYLQMNSLRAEDTALYYCAKDKGIGFNWNYEGFDYWGQGTLVTVSS VL: DIQMTQSPSSLSASVGDRVTITCRASQGISNHLAWFQQKPGKAPKSLIYAASSLQSGVPSRFSGSGSGTDFTLTISSLQPEDFATYYCQQYVTYPLTFGGGTKVEIK |

Reference: patent US20240254246A1 (PROMETHEUS BIOSCIENCES, published 2024)
